In patent publication US20150368659:

Legend:
[1] = tested on: GBSS_T1 TALE-nuclease left monomer (synthetic construct (Xanthomonas TALE)?); experiment: cell_activity; conditions: pair with right monomer; S. tuberosum protoplasts; 23% with TREX2 co-delivered; full target SEQ 5
[2] = tested on: GBSS_T1 TALE-nuclease right monomer (synthetic construct (Xanthomonas TALE)?); experiment: cell_activity; conditions: pair with left monomer; S. tuberosum protoplasts; 23% with TREX2 co-delivered; full target SEQ 5

| Sequence | activity (% NHEJ mutagenesis) [1] | activity (% NHEJ mutagenesis) [2] |
| --- | --- | --- |
| TCTGACTCACAATGGTT (double strand) [GBSS_T1 left half-site] | 11 |  |
| AGCTTGATGGGCTCCAA (double strand) [GBSS_T1 right half-site] |  | 11 |
